How the values were obtained:
[1] = target: T1, TYK2 JH1 domain (UniProt P29597 897-1176); assay: SPR
T1 chain: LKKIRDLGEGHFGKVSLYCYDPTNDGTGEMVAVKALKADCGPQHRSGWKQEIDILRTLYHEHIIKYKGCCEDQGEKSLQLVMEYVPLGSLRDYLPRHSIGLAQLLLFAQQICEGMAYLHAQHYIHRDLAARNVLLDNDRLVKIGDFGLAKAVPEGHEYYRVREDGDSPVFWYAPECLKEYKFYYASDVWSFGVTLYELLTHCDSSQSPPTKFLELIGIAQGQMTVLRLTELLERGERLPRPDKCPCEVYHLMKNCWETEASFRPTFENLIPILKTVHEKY

[2] = target: JAK3 JH1 domain (UniProt P52333 822-1111); assay: SPR
Sequence of JAK3 JH1 domain (P52333 822-1111): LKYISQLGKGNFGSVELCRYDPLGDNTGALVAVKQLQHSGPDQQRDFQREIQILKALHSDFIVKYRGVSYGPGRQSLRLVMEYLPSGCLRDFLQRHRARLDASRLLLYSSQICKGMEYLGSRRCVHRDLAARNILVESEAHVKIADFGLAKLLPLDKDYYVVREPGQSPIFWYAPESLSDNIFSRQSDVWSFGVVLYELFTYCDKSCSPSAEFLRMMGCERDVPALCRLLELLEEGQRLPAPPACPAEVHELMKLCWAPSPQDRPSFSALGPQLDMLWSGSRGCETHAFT

Kd [1]: 1.2 µM
Kd [2]: 2.1 µM
B1: SOCS5 175–244 fragment (domain or fragment)
chain: RSLRQRLQDTVGLCFPMRTYSKQSKPLFSNKRKIHLSELMLEKCPFPAGSDLAQKWHLIKQHTAPVSPHS
